Test [1] has as its target T1, recombinant human CD47 (human, UniProt Q08722 19-139).
T1 construct: also called antigen CD47
Description: ELISA, plate coated with 1 µg/mL recombinant human CD47, OD450. The method, then:
A 96-well high-adsorption ELISA plate was coated with 1 μg/mL of the recombinant human CD47 (Sino Biological Inc.) at 100 μL per well using carbonate buffer solution, pH=9.6 at 4° C. overnight. The plate was washed 5 times with PBST, and then blocked using PBST with 1% BSA, 300 μL/well, and incubated at 25° C. for 1 hour, and then washed 5 times with PBST. The anti-human CD47 antibody samples and the control CC-90002 (a patent sequence from WO2016109415) were added, 100 μL/well, incubated at 25° C. for 1 hour, and then washed 5 times with PBST. The horseradish peroxidase-labeled anti-mouse IgG antibody (Abcam, catalog number Ab7068) diluted 1:10000 in PBST with 1% BSA was then added, 100 μL per well, and incubated at 25° C. for 1 hour. The plate was washed 5 times with PBST. The colorimetric substrate TMB was added, 100 μL/well, and developed at room temperature for 10 minutes. 1M H₂SO₄ was added, 100 μL/well, to stop the development. The absorbance at 450 nm was read on a microplate reader.

For test [2], the target named is T2, recombinant human B7-H2 (ACROBiosystems) (human, UniProt O75144 19-258, limits assumed).
T2 construct: counted here as a B7 family member
T2 sequence (looked up): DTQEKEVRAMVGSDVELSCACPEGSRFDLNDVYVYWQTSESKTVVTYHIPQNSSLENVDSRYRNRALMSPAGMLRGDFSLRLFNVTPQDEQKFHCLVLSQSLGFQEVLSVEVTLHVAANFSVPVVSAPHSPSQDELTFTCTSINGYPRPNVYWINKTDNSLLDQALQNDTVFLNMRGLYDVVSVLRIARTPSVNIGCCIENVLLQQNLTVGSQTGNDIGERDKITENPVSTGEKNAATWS
The experiment in a line: ELISA, coated recombinant protein. The method, then:
(§1) Binding specificity of the chimeric anti-human CD47 mAbs was determined by ELISA. A 96-well high-adsorption ELISA plate was coated with 1 μg/mL of the recombinant human PD1, CD28, CTLA4, ICOS, BTLA, CD47, PD-L2, CD80, CD86, B7-H2, CD47, SIRPα and SIRPγ (all from ACROBiosystems), at 100 μL per well using carbonate buffer solution, pH=9.6 at 4° C. overnight. The plate was washed 5 times with PBST, and then blocked using PBST with 1% BSA, 300 μL/well, and incubated at 25° C. for 1 hour, and then washed 5 times with PBST. The chimeric anti-human CD47 mAb samples serially diluted in PBST with 1% BSA and the control CC-90002 and the isotype control were added, 100 μL/well, incubated at 25° C. for 1 hour, and then washed 5 times with PBST. The horseradish peroxidase-labeled anti-human IgG antibody (Chemicon, catalog number AP309P) diluted 1:10000 in PBST with 1% BSA was then added, 100 μL per well, and incubated at 25° C. for 1 hour. The plate was washed 5 times with PBST. The colorimetric substrate TMB was added, 100 μL/well, and developed at room temperature for 10 minutes. 1M H₂SO₄ was added, 100 μL/well, to stop the development. The absorbance at 450 nm was read on a microplate reader.

In test [3] the target is recombinant human SIRPγ (ACROBiosystems) (human, UniProt Q9P1W8 29-360, limits assumed). Description: ELISA, coated recombinant protein. Here is the method:
as §1

Test [4] deals with T3, recombinant human CD47-Fc protein (ACROBiosystems, catalog number CD7-H52A5) (human, UniProt Q08722 19-139).
T3 construct: bought; not shown: Fc part of a bought fusion protein, not described
Description: blocking ELISA: plate coated with human CD47-Fc, 2 nM biotin-labelled SIRPα as the blocked ligand, falling OD450 curve; the sheet labels the half-maximal value EC50. The method, then: (§2) A 96-well high-adsorption ELISA plate was coated with 1 μg/mL of the recombinant human CD47-Fc (ACROBiosystems) at 100 μL per well using carbonate buffer solution, pH=9.6 at 4° C. overnight. The plate was washed 5 times with PBST, and then blocked using PBST with 1% BSA, 300 μL/well, and incubated at 25° C. for 1 hour, and then washed 5 times with PBST. The anti-human CD47 antibody samples were added, 50 μL/well, the biotin-labelled SIRPα (ACROBiosystems) was added at a concentration of 4 nM (a final concentration of 2 nM), 50 μL/well, incubated at 25° C. for 90 minutes, and then washed 5 times with PBST. The Streptavidin-HRP (BD Pharmingen, catalog number 554066) diluted 1:1000 in PBST with 1% BSA was then added, 100 μL per well, and incubated at 25° C. for 1 hour. The plate was washed 5 times with PBST. The colorimetric substrate TMB was added, 100 μL/well, and developed at room temperature for 10 minutes. 1M H₂SO₄ was added, 100 μL/well, to stop the development. The absorbance at 450 nm was read on a microplate reader.

The target of test [5] is T1, recombinant human CD47. Description: ELISA, coated recombinant human CD47. The method, then:
ELISA was used to screen the anti-human CD47 antibodies in the hybridoma culture supernatants. A 96-well high-adsorption ELISA plate (Costar, catalog number 42592) was coated with 1 μg/mL of the recombinant human CD47 (Sino Biological Inc.) at 100 μL per well using carbonate buffer solution, pH=9.6 at 4° C. overnight. The plate was washed 5 times with PBST, and then blocked using PBST with 1% BSA, 300 μL/well, and incubated at 25° C. for 1 hour, and then washed 5 times with PBST. The culture supernatant samples and positive serum control were added, 100 μL/well, incubated at 25° C. for 1 hour, and then washed 5 times with PBST. The horseradish peroxidase-labeled anti-mouse IgG antibody (Abcam, catalog number Ab7068) diluted 1:10000 in PBST with 1% BSA was then added, 100 μL per well, and incubated at 25° C. for 1 hour. The plate was washed 5 times with PBST. The colorimetric substrate TMB was added, 100 μL/well, and developed at room temperature for 10 minutes. 1M H₂SO₄ was added, 100 μL/well, to stop the development. The absorbance at 450 nm was read on a microplate reader. Positive clones capable of secreting the anti-human CD47 selection antibodies were selected according to the magnitude of OD₄₅₀ₙₘ.

In test [6] the target is T3, recombinant human CD47-Fc protein …. Description: competition ELISA, coated CD47-Fc, competitor biotin-labelled SIRPα 2 nM. Here is the method:
as §2, with “ELISA was used to determine whether the anti-human CD47 selection antibodies secreted by the positive clones can block the binding of CD47/SIRPα. A 96-well” for “A 96-well”, “anti-human CD47 selection antibody samples” for “anti-human CD47 antibody samples”, “microplate reader. The anti-human CD47 selection antibodies capable of inhibiting the binding of the human CD47-Fc/biotin-labelled SIRPα have a neutralizing activity. […]” for “microplate reader.”

The target is the same in test [7]. Description: blocking ELISA: plate coated with human CD47-Fc, biotin-labelled SIRPα as the blocked ligand, falling OD450 curve; the sheet labels the half-maximal value EC50.
Test [8] concerns the target T1, recombinant human CD47. Description: ELISA, plate coated with recombinant human CD47, OD450.
In test [9] the target is T1, recombinant human CD47. Description: SPR, Biacore X100, antibody captured on Protein A chip, CD47 as analyte. The source says: Biacore X100 instrument (purchased from GE) was used to detect the kinetic constant of the chimeric anti-human CD47 monoclonal antibodies binding to its antigen human CD47. This instrument utilizes optical surface plasmon resonance technology to detect the association and dissociation between the molecules coated on the biochip and the molecules to be tested. The main reagent used is Protein A chip (GE Healthcare, 29-1275-57). The experimental procedure is briefly described as follows: the chimeric anti-human CD47 antibodies were diluted in running buffer (1×HBS-EP+10 mM HEPES, 150 mM NaCl, 3 mM EDTA, 0.05% surfactant P20, pH7.4). During the capture-binding phase, the antibodies at a concentration of 2 μg/mL were injected for 60 seconds at a speed of 10 μL/min. During the binding phase, the antigen CD47 was diluted into multiple concentrations with running buffer, injected for 120 seconds at a speed of 30 μL/min respectively. During the dissociation phase, running buffer was injected for 600 seconds at a speed of 10 μL/min. The regeneration condition is 10 mM glycinate solution, pH1.5. Association kinetic constants and dissociation kinetic constants were analyzed and calculated by Biacore X100 evaluation software. The association kinetic constants, dissociation kinetic constants and dissociation equilibrium constants of the chimeric anti-human CD47 antibodies were shown in Table 7.
As mentioned above, Biacore X100 instrument was used to detect the binding kinetic constant of the humanized anti-human CD47 monoclonal antibodies to its antigen human CD47. The association kinetic constants, dissociation kinetic constants and dissociation equilibrium constants of the humanized anti-human CD47 antibodies were shown in Table 10.

T1 sequence (Q08722 19-139 limits assumed): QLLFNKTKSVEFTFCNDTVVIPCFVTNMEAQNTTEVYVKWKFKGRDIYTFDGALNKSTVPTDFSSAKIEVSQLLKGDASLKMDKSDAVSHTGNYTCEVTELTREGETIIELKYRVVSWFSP
T3 sequence (Q08722 19-139 limits assumed): as above
recombinant human SIRPγ (ACROBiosystems), sequence (Q9P1W8 29-360 limits assumed): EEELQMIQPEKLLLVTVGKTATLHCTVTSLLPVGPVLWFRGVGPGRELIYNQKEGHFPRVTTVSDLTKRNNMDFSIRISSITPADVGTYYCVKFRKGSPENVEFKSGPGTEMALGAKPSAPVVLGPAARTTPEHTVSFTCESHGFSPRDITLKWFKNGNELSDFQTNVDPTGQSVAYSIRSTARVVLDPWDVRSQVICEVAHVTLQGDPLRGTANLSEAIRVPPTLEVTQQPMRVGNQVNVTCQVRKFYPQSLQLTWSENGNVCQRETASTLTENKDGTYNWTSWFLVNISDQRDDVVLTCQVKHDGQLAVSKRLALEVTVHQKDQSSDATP

B1: chimeric anti-human CD47 monoclonal antibody mAb-18-10 N297A (antibody, human IgG1, kappa, N297A)
heavy: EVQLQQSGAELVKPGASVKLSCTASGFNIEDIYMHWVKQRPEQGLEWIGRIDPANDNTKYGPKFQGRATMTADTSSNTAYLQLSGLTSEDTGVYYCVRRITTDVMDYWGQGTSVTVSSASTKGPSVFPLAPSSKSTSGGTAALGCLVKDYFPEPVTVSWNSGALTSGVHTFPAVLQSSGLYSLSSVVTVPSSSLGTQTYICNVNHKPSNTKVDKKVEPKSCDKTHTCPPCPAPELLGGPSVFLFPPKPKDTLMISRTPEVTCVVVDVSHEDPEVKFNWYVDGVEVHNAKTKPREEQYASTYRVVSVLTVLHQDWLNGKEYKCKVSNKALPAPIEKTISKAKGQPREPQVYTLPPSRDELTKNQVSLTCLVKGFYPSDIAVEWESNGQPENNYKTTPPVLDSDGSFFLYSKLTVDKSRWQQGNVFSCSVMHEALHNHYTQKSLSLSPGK
light: DIVMTQSQKFMSTSVGDRVSITCKASQNVRTSIAWYQQKPGQSPKTLIYLASNRHTGVPDRFTGSGSGTDFTLTISNVQSEDLADYFCLQHWNYPFTFGSGTKLEIKRTVAAPSVFIFPPSDEQLKSGTASVVCLLNNFYPREAKVQWKVDNALQSGNSQESVTEQDSKDSTYSLSSTLTLSKADYEKHKVYACEVTHQGLSSPVTKSFNRGEC
notes: no further substitution applied
Consider B1, for which the EC50 with recombinant human CD47 [1] turned out to be 0.031 nM. For the same molecule, the binding result in [2] and in test [3] was “no binding” in each case. The IC50 in test [4] came to 1.69 nM.

B2: anti-human CD47 murine monoclonal antibody secreted by clone CD47-18-5 (antibody, V domains shown)
VH: EVQLQQSGAELVKPGASVKLSCTASGFNIEDIYMHWVKQRPEQGLEWIGRIDPANDNTKYGPKLQGRATITADTSSNTAYLQLSGLTSEDTGVYYCVRRIPTDIMDYWGPGTSVTVSS
VL: DIVMTQSQKFMSTSVGDRVSITCKASQNVRTSIAWYQQKSGQSPKTLIYLASNRHTGVPDRFTGSGSGTDFTLTISNVQSEDLADYFCLQHWNYPFTFGSGTKLEIK
notes: murine hybridoma antibody
On to B2, for which the EC50 with recombinant human CD47 [5] stood at 0.252 nM. In addition, the IC50 in [6] came out at 1.48 nM.

B3: anti-human CD47 murine monoclonal antibody secreted by clone CD47-18-10 (antibody, V domains shown)
VH: EVQLQQSGAELVKPGASVKLSCTASGFNIEDIYMHWVKQRPEQGLEWIGRIDPANDNTKYGPKFQGRATMTADTSSNTAYLQLSGLTSEDTGVYYCVRRITTDVMDYWGQGTSVTVSS
VL: DIVMTQSQKFMSTSVGDRVSITCKASQNVRTSIAWYQQKPGQSPKTLIYLASNRHTGVPDRFTGSGSGTDFTLTISNVQSEDLADYFCLQHWNYPFTFGSGTKLEIK
notes: murine hybridoma antibody
B3: the EC50 in the test with recombinant human CD47 [5] is 0.273 nM. Also, the IC50 in test [6] was 2.1 nM.

B4: humanized anti-human CD47 monoclonal antibody BH3008b (antibody, human IgG4 S228P, kappa, V domains shown)
VH: QVQLVQSGAEVKKPGSSVKVSCKASGFNIEDIYMHWVRQAPGQGLEWMGRIDPANDNTKYGPKLQGRVTITADTSTNTAYMELSSLRSEDTAVYYCVRRIPTDIMDYWGQGTTVTVSS
VL: DIQMTQSPSSLSASVGDRVTITCKASQNVRTSIAWYQQKPGKAPKTLIYLASNRHTGVPSRFSGSGSGTEFTLTISNLQPEDFATYYCLQHWNYPFTFGQGTKLEIKR
notes: variable regions of Z11; the summary calls the humanized antibody an IgG4; also called Z11
As to B4, the IC50 in [7] turned out to be 0.781 nM. Further, the half-maximal effective concentration (EC50) with recombinant human CD47 [8] was found to be 0.035 nM. In the test with recombinant human CD47 [9], the Kd worked out at 1.17 nM, the koff is 0.00117 s⁻¹ and the kon turned out to be 998000 M⁻¹ s⁻¹.

B5: humanized anti-human CD47 monoclonal antibody BH3011b (antibody, human IgG4 S228P, kappa, V domains shown)
VH: QVQLVQSGAEVKKPGSSVKVSCKASGFNIEDIYMHWVRQAPGQGLEWMGRIDPANDNTKYGPKLQGRVTITADTSTNTAYMELSSLRSEDTAVYYCVRRIPTDIMDYWGQGTTVTVSS
VL: DIQMTQSPSSLSASVGDRVTITCKASQNVRTSIAWYQQKPGKAPKTLIYLASNRHTGVPSRFSGSGSGTEFTLTISNLQPEDFATYFCLQHWNYPFTFGQGTKLEIKR
notes: variable regions of Z12; the summary calls the humanized antibody an IgG4; also called Z12; BH301Tb
Regarding B5, the IC50 in test [7] worked out at 0.741 nM. The EC50 with recombinant human CD47 [8] was 0.029 nM. Also, in the test with recombinant human CD47 [9], the Kd was found to be 0.833 nM, the koff was 0.000852 s⁻¹ and the kon came to 1.02e+06 M⁻¹ s⁻¹.

The values are drawn from patent US20250277031A1 (BEIJING HANMI PHARMACEUTICAL, published 2025).
